Test results from patent US20150246947A1 (BAXALTA, published 2015).

Tests used:
human Protein S [1] = target: T1, human Protein S (human, UniProt P07225 42-676); assay: cell-based or functional assay
T1 sequence: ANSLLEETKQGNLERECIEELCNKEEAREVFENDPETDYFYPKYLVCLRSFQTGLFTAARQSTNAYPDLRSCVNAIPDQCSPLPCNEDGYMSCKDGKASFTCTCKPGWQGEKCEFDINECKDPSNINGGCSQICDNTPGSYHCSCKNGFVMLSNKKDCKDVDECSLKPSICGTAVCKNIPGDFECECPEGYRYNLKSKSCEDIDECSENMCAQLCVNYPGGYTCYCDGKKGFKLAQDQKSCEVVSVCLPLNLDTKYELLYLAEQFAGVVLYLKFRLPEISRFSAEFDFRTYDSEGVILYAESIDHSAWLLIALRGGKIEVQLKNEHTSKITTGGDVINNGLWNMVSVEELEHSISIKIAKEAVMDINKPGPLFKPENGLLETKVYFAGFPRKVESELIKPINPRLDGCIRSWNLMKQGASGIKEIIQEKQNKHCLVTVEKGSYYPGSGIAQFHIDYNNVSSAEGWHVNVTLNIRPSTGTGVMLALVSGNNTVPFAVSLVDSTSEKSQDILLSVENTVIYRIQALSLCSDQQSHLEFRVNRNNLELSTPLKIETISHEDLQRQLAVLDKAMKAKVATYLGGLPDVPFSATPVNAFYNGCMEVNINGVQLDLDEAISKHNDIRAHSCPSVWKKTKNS

human Protein S [2] = target: T1, human Protein S; assay: Biacore (SPR), Protein S immobilized, 37 °C
Protocol: (§1) Protein S affinity also was determined via Biacore (Biacore 3000 or Biacore T200) using human full-length Protein S and human GAS6. Briefly, 1000 RU of Protein S or GAS6 were immobilized on a CMS chip. In order to probe the kinetics of Protein S binding peptides to Protein S, the peptides were injected at various concentrations in a HBS-buffer containing 3 mM CaCl₂ and 1% DMSO to the flow cell and allowed to interact with the immobilized proteins on the sensor chip. The chip could be regenerated with 4 M MgCl₂ in HBS-buffer. Sensorgrams were fitted to a Langmuir binding model for the determination of kₒₙ and koff and the calculation of KD. Peptides were tested on their specificity to Protein S with peptide binding studies on the anti-target GAS6.

human GAS6 = target: T2, human GAS6 (human, UniProt Q14393 49-678, limits assumed); assay: Biacore (SPR), GAS6 immobilized on the chip; sensorgrams reviewed visually
T2 construct: Immobilized on the Biacore chip; also called protein encoded by the Growth Arrest Specific-6 gene; anti-target
T2 sequence (looked up): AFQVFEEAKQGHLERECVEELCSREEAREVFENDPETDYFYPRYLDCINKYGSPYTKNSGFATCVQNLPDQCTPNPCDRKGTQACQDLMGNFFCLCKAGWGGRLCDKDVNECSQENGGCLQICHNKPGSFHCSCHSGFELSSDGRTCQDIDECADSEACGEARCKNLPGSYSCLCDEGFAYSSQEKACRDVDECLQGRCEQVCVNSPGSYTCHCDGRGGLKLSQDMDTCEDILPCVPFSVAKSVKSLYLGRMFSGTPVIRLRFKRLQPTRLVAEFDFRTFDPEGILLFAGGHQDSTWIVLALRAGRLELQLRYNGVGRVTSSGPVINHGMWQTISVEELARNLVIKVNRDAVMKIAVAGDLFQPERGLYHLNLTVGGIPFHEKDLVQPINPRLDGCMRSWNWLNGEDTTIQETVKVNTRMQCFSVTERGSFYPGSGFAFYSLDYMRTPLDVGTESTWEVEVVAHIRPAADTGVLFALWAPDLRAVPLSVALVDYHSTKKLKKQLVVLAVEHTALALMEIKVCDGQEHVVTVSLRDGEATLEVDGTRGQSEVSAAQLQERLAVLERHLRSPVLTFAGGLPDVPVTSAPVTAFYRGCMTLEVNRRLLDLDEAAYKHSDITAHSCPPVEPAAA
Protocol: as §1
Interactions with the anti-target GAS6 were measured via Biacore (surface plasmon resonance) (see Example 2). The maximum signal from the interaction of the peptides with human GAS6 was much lower than the signals obtained with Protein S as interaction partner. Kinetic analysis of the low GAS6 binding signals was error prone, and sensorgrams were reviewed visually to estimate anti-target binding. […]

human Protein S [3] = target: T1, human Protein S; assay: LANCE TR-FRET competition; Eu-labeled Protein S; competitor tracer JBS0684
Protocol: (§2) Peptides also were characterized in a competition, homogenous europium-based TR-FRET assay (LANCE IC50 assay) using JBS0684 as a tracer (i.e., competitor for Protein S binding). The following reagents were mixed together in a Perkin-Elmer ProxiPlate MTP well (indicated concentration is the final concentration): Eu-labeled Protein S (10 nM), Ulight™-labeled Streptavidin (100 nM), tracer (JBS0684 (300 nM)), and peptide (titrated in three-fold dilution steps). The final volume was 50 μl/well. The reaction mix was incubated for 1 hour at room temperature, then the fluorescence emission at 665 nm was recorded on a multi-mode reader (SpectraMax® M5, Molecular Devices) using the following instrument settings: Ex 340 nm, Em 665 nm, delay 50 μsec, integration 100 μsec, reads 100. Binding of tracer peptides to soluble europium-labeled Protein S was detected by Streptavidin labeled with an acceptor fluorophor (ULight™). Inhibition of tracer-binding to Protein S by a non-biotinylated peptide results in a decrease of TR-FRET between the Eu-labeled Protein S and ULight™-labeled Streptavidin. IC50 values were obtained from peptide titration curves at constant tracer concentration using non-linear regression of the fluorescence emission signals at 665 nm.
Several peptides having multiple substitutions in the JBS2572 amino acid sequence were synthesized and evaluated using LANCE IC50 and CAT assays described above. For the assays, pooled normal plasma was supplemented with 3 nM APC and triggered with 6 pM TF, and 15 μM phospholipids (DOPC/POPS 80/20). Stock APC was diluted with TF-PL-MIX to 24 nM (plasma concentration: 3 nM).

human Protein S [4] = target: T1, human Protein S; assay: LANCE TR-FRET competition; Eu-Protein S 10 nM, competitor tracer JBS0684 300 nM; Molecular Devices M5 reader
Protocol: as §2

For Ac-TGLVSAGWYDYNFDHYREFT-NH2 (also called parent peptide JBS2572) [JBS2572], the “CAT EC50” value (human Protein S [1]) was 151 nM, the Kd (human Protein S [2]) was 3.8 nM and the koff (human Protein S [2]) was 0.00431 s⁻¹. The kon (human Protein S [2]) was 1.14e+06 M⁻¹ s⁻¹, the binding result (human GAS6) was “no binding (tested: 1 µM)” and the IC50 (human Protein S [3]) was 9.7 nM. For the same binder, the IC50 (human Protein S [4]) was 49 nM.
